{
  "source": "patent US20190134161A1",
  "about": "(PEGBIO, published 2019)",
  "binders": {"B1": {"name": "PB-740 (peptide)", "peptide": "HSQGTFTSDYSKYLDSRRAQDFVQWLMNTC"}, "B2": {"name": "PB-721 (peptide)", "peptide": "B1 peptide", "modifications": "not fully specified; mPEG-23 KD-ppMAL conjugated to PB-740 (cysteine added after the 29th amino acid)"}},
  "target": "glucagon receptor",
  "experiment": "cell-based or functional assay",
  "data": [
    {"binder": "B1", "values": [
      {"measurement": "In Vitro EC50 (cAMP release, HEK293 cells stably expressing the glucagon receptor, cAMP ELISA)", "result": 1.45, "unit": "nM"}
    ]},
    {"binder": "B2", "values": [
      {"measurement": "In Vitro EC50 (cAMP release, HEK293 cells stably expressing the glucagon receptor, cAMP ELISA)", "result": 6.94, "unit": "nM"}
    ]}
  ]
}
